Assay results published in US20220081480A1 (Merck KGaA, published 2022).

T1: cyno TIM-3-His6 (cynomolgus monkey)
T1 construct: Made in HEK293 cells; not shown: 6-His tag
T1 chain: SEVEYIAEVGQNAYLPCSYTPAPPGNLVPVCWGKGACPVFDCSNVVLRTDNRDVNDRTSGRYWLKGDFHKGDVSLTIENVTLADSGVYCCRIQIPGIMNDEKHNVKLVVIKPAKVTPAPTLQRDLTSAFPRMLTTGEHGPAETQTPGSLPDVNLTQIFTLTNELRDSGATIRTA


Columns and labels:
[1] = molecular target: T2, human TIM-3 ECD with 6-His tag (hu TIM-3-His6) (human, UniProt Q8TDQ0 22-200); test: SPR (Biacore), relative to 3903E11 (VH1.0, VL1.0)
T2 construct: Novoprotein Cat# C356; the entry includes the His tag; also called hTIM3-His; human TIM3-His6

cyno TIM-3-His6 = molecular target: T1, cyno TIM-3-His6; test: SPR (Biacore)
[2] = molecular target: T2, human TIM-3 ECD with 6-His tag (hu …); test: SPR (Biacore)
[3] = molecular target: T3, human TIM-3 on huTIM-3-CHO-S cells (human, UniProt Q8TDQ0 22-202); test: FACS on CHO-S-hTIM-3 cells
T3 construct: Membrane-anchored human TIM-3 ECD (NP_116171) stably expressed on CHO-S cells; also called CHO-S-hTIM3; CHO-S-hTIM-3; not shown: membrane anchor of the expression vector, not described

[4] = molecular target: T4, wild-type TIM-3 (hu TIM-3), HEK-expressed (human, UniProt Q8TDQ0 22-202, limits assumed); test: SPR
T4 construct: Soluble protein of the mutagenesis study

Row | Binder | Human TIM3 KD Ratio to Parent [1] | Kd (cyno TIM-3-His6) | Kd [2] | MFI at 0.1 µg/ml [3] | MFI at 1 µg/ml [3] | MFI at 10 µg/ml [3] | Kd [4]
1 | 3903E11 (VH1.0, VL1.1) (antibody, human IgG1, lambda, Pair-wise combination of parental heavy chain and VL1.1-CL; IgG1 lambda) heavy: not shown light: QSALTQPRSVSGSPGQSVTISCTGTSSDVGGYNYVSWYQQHPGKAPKLMIFDVSKRPSGVPDRFSGSKSGNTASLTISGLQAEDEADYYCSSYADSVVFGGGTKVTVLGQPKAAPSVTLFPPSSEELQANKATLVCLISDFYPGAVTVAWKADSSPVKAGVETTTPSKQSNNKYAASSYLSLTPEQWKSHKSYSCQVTHEGSTVEKTVAPTECS | 0.78 | 6.5 nM | 2.7 nM | 148 MFI | 1460 MFI | 1870 MFI | 
2 | 3903E11 (VH1.1, VL1.1) (antibody, human IgG1, lambda, IgG1 lambda) heavy: not shown light: QSALTQPRSVSGSPGQSVTISCTGTSSDVGGYNYVSWYQQHPGKAPKLMIFDVSKRPSGVPDRFSGSKSGNTASLTISGLQAEDEADYYCSSYADSVVFGGGTKVTVLGQPKAAPSVTLFPPSSEELQANKATLVCLISDFYPGAVTVAWKADSSPVKAGVETTTPSKQSNNKYAASSYLSLTPEQWKSHKSYSCQVTHEGSTVEKTVAPTECS |  | 17.9 nM | 7.6 nM | 154 MFI | 1390 MFI |  | 
3 | 3903E11 (VH1.0, VL1.3) (antibody, IgG1, IgG1 lambda) heavy: not shown light: QSALTQPRSVSGSPGQSVTISCTGTSSDVGGYNYVSWYQQHPGKAPKLMIYDVSKRPSGVPDRFSGSKSGNTASLTISGLQAEDEADYYCSSYADSVVFGGGTKVTVLGQPKAAPSVTLFPPSSEELQANKATLVCLISDFYPGAVTVAWKADSSPVKAGVETTTPSKQSNNKYAASSYLSLTPEQWKSHKSYSCQVTHEGSTVEKTVAPTECS |  | 6.7 nM | 2.7 nM | 162 MFI | 1540 MFI | 1930 MFI | 
4 | 3903E11 (VH1.2, VL1.2) (antibody, human IgG1, lambda, IgG1 lambda) heavy: not shown light: SYELTQPRSVSGSPGQSVTISCTGTSSDVGGYNYVSWYQQHPGKAPKLMIYDVSKRPSGVPDRFSGSKSGNTASLTISGLQAEDEADYYCSSYADSVVFGGGTKVTVLGQPKAAPSVTLFPPSSEELQANKATLVCLISDFYPGAVTVAWKADSSPVKAGVETTTPSKQSNNKYAASSYLSLTPEQWKSHKSYSCQVTHEGSTVEKTVAPTECS |  | 6.3 nM | 1.6 nM | 114 MFI | 1300 MFI | 1900 MFI | 
5 | 3903E11 (VH1.2, VL1.1) (antibody, human IgG1, lambda, IgG1 lambda) heavy: not shown light: QSALTQPRSVSGSPGQSVTISCTGTSSDVGGYNYVSWYQQHPGKAPKLMIFDVSKRPSGVPDRFSGSKSGNTASLTISGLQAEDEADYYCSSYADSVVFGGGTKVTVLGQPKAAPSVTLFPPSSEELQANKATLVCLISDFYPGAVTVAWKADSSPVKAGVETTTPSKQSNNKYAASSYLSLTPEQWKSHKSYSCQVTHEGSTVEKTVAPTECS | 0.52 | 5.6 nM | 1.8 nM | 148 MFI | 1400 MFI | 1930 MFI | 
6 | 3903E11 (VH1.2, VL1.0) (antibody, human IgG1, lambda, IgG1 lambda) heavy: not shown light: SYELTQPRSVSGSPGQSVTISCTGTSSDVGGYNYVSWYQQHPGKAPKLMIFDVSKRPSGVPDRFSGSKSGNTASLTISGLQAEDEADYYCSSYADSVVFGGGTKVTVLGQPKAAPSVTLFPPSSEELQANKATLVCLISDFYPGAVTVAWKADSSPVKAGVETTTPSKQSNNKYAASSYLSLTPEQWKSHKSYSCQVTHEGSTVEKTVAPTECS | 0.62 | 5.5 nM | 2.2 nM | 156 MFI | 1510 MFI | 1950 MFI | 
7 | 3903E11 (VH1.3, VL1.1) (antibody, human IgG1, lambda, IgG1 lambda) heavy: not shown light: QSALTQPRSVSGSPGQSVTISCTGTSSDVGGYNYVSWYQQHPGKAPKLMIFDVSKRPSGVPDRFSGSKSGNTASLTISGLQAEDEADYYCSSYADSVVFGGGTKVTVLGQPKAAPSVTLFPPSSEELQANKATLVCLISDFYPGAVTVAWKADSSPVKAGVETTTPSKQSNNKYAASSYLSLTPEQWKSHKSYSCQVTHEGSTVEKTVAPTECS |  | 19.5 nM | 4.7 nM | 105 MFI | 1050 MFI |  | 
8 | 3903E11 (VH1.3, VL1.2) (antibody, human IgG1, lambda, IgG1 lambda) heavy: not shown light: SYELTQPRSVSGSPGQSVTISCTGTSSDVGGYNYVSWYQQHPGKAPKLMIYDVSKRPSGVPDRFSGSKSGNTASLTISGLQAEDEADYYCSSYADSVVFGGGTKVTVLGQPKAAPSVTLFPPSSEELQANKATLVCLISDFYPGAVTVAWKADSSPVKAGVETTTPSKQSNNKYAASSYLSLTPEQWKSHKSYSCQVTHEGSTVEKTVAPTECS |  | 19.9 nM | 6 nM | 87 MFI | 958 MFI |  | 
9 | 3903E11 (VH1.1, VL1.3) (antibody, IgG1, IgG1 lambda) heavy: not shown light: QSALTQPRSVSGSPGQSVTISCTGTSSDVGGYNYVSWYQQHPGKAPKLMIYDVSKRPSGVPDRFSGSKSGNTASLTISGLQAEDEADYYCSSYADSVVFGGGTKVTVLGQPKAAPSVTLFPPSSEELQANKATLVCLISDFYPGAVTVAWKADSSPVKAGVETTTPSKQSNNKYAASSYLSLTPEQWKSHKSYSCQVTHEGSTVEKTVAPTECS |  | 22.3 nM | 7.4 nM |  |  |  | 
10 | 3903E11 (VH1.3, VL1.3) (antibody, IgG1, IgG1 lambda) heavy: not shown light: QSALTQPRSVSGSPGQSVTISCTGTSSDVGGYNYVSWYQQHPGKAPKLMIYDVSKRPSGVPDRFSGSKSGNTASLTISGLQAEDEADYYCSSYADSVVFGGGTKVTVLGQPKAAPSVTLFPPSSEELQANKATLVCLISDFYPGAVTVAWKADSSPVKAGVETTTPSKQSNNKYAASSYLSLTPEQWKSHKSYSCQVTHEGSTVEKTVAPTECS |  |  | 4.5 nM | 82 MFI | 1020 MFI |  | 
11 | 3903E11 (VH1.3, VL1.0) (antibody, human IgG1, lambda, IgG1 lambda) heavy: not shown light: SYELTQPRSVSGSPGQSVTISCTGTSSDVGGYNYVSWYQQHPGKAPKLMIFDVSKRPSGVPDRFSGSKSGNTASLTISGLQAEDEADYYCSSYADSVVFGGGTKVTVLGQPKAAPSVTLFPPSSEELQANKATLVCLISDFYPGAVTVAWKADSSPVKAGVETTTPSKQSNNKYAASSYLSLTPEQWKSHKSYSCQVTHEGSTVEKTVAPTECS |  | 19.3 nM | 6.4 nM | 105 MFI | 957 MFI |  | 
12 | 3903E11 (VH1.0, VL1.2) (antibody, human IgG1, lambda, IgG1 lambda) heavy: not shown light: SYELTQPRSVSGSPGQSVTISCTGTSSDVGGYNYVSWYQQHPGKAPKLMIYDVSKRPSGVPDRFSGSKSGNTASLTISGLQAEDEADYYCSSYADSVVFGGGTKVTVLGQPKAAPSVTLFPPSSEELQANKATLVCLISDFYPGAVTVAWKADSSPVKAGVETTTPSKQSNNKYAASSYLSLTPEQWKSHKSYSCQVTHEGSTVEKTVAPTECS |  | 8.6 nM | 3.4 nM | 140 MFI | 1340 MFI | 1930 MFI | 
13 | 27.12E12 (antibody, V domains shown) VH: EVQLQQSGAELVRPGALVKLSCKASGFNIKDYYMYWMKQRPEQGLEWIGWIDPENVKTIYDPKFQGRATLTADTSSNTAYLQLSSLTSEDTAVYYCTRDFGYVGFFDVWGAGTTVTVSS VL: DIVMTQSQKFMSTSVGDRVSVNCKASQNVGTNVVWYQQKPGQSPKALIYSASYRYSGVPDRFTGSGSGTDFTLTISTVQSEDLAEYFCQQYNSYPLTFGGGTKLEIKR |  |  |  |  |  |  | 51.6 nM
